Positions count from the first letter of the chain named.
B1: monoclonal antibody 8C5 (antibody, V domains shown)
VH: EVQLVESGGGLVQPGGSLKLSCTASGFTFSSYGMSWVRQTPDKRLELVASIKNNGGSTYYPDSLKGRFTISRDNAKNTLYLQMSSLKSEDTAMYYCASGDYWGQGTTLTVSS
VL: DVVMTQTPLSLPVSLGDQASISCRSSQSLVHSNGDTFLHWYLQKPGQSPKLLIYKVSNRFSGVPDRFSGSGSGTDFTLKISRVEAEDLGIYFCSQSIHVPWTFGGGTKLEIKR
B2: monoclonal antibody 8F5 (antibody, V domains shown)
VH: B1 VH with T23A, K52N, N53S, L64V, T106S
VL: B1 VL with H31Y, F37Y, I90V, I97T

Biological target: soluble amyloid precursor protein alpha (UniProt P05067)
Experiment: sandwich ELISA, EC50 of this antigen divided by EC50 of Aβ(1-42) globulomer

Binder | selectivity factor (EC50 ratio against Aβ(1-42) globulomer) [fold]
B1 | > 100
B2 | > 100

From patent publication US8497072
